In patent US20180273970A1, “PLASMID, TRANSFORMED PLANT CELL AND TRANSGENIC PLANT COMPRISING THE SAME, AND METHODS FOR PREPARING A TRANSGENIC PLANT AND FOR INCREASING YIELD OF A PLANT UNDER ABIOTIC STRESSES” (Academia Sinica, priority 2014, published 2018):

How the values were obtained:
αAmy3 SRC promoter [1] = assay: Rice embryo transient expression assay, SRC-35Smp:Luc reporter (luciferase); format: cell-based; conditions: 24 h; for Antagonism of SnRK1A function on αAmy3 SRC promoter: co-transfected with Ubi:SnRK1A, +S or −S
Description: FIG. 3. The highly conserved GKSKSF domain (KSD) is essential for SKINs to antagonize the function of SnRK1A. Rice embryos were transfected with plasmids, incubated in medium with 100 mM glucose (+S) or without glucose (−S) for 24 h, and assayed for luciferase activity. The luciferase activity in rice embryos bombarded with the SRC-35S mp-Luc construct only and in +S medium was set to 1×, and other values were calculated relative to this value. Error bars indicate the SE for three replicate experiments. (A) Plasmid constructs. (B) Rice embryos were co-transfected with effector Ubi:SnRK1A, Ubi:SKIN1 or Ubi:SKIN(Ri) alone and reporter SRC-35Smp:Luc, or co-transfected with effectors Ubi:SnRK1A and Ubi:SKIN or Ubi:SKIN(Ri) and reporter SRC-35Smp:Luc. (C) Total cellular proteins were extracted from rice embryos transfected with Ubi:SnRK1A, Ubi:SKIN or Ubi:SnRK1A and Ubi:SKIN by particle bombardment and subjected to Western blot analysis using antibodies against SnRK1A and the HA tag fused to at the N-terminus of SKINs. (D) Rice embryos were co-transfected with effectors Ubi:SnRK1A and Ubi:SKIN1 (wild-type or truncated) and reporter SRC-35Smp:Luc. (E) Rice embryos were co-transfected with effectors Ubi:SnRK1A and Ubi:SKIN (wild-type, KSD deleted, or KSD replaced with 6 Ala) and reporter SRC-35Smp:Luc.
(§1) FIG. 21. ABA and sorbitol suppress the function of SnRK1A in activation of αAmy3 SRC promoter. Rice embryos and barley aleurones were transfected with reporter SRC-35Smp:Luc with or without effectors, incubated with or without ABA for 24 h, and assayed for luciferase activity. The luciferase activity in embryos or aleurones bombarded with the SRC-35S mp-Luc construct only and in +S medium was set to 1×, and other values were calculated relative to this value. Error bars indicate the SE for three replicate experiments. (A) Plasmid constructs. (B) Barley aleurones were transfected with effector Ubi:SnRK1A, Ubi:SKIN1 or Ubi:SKIN(Ri) alone and reporter SRC-35Smp:Luc, or co-transfected with effectors Ubi:SnRK1A and Ubi:SKIN or Ubi:SKIN(Ri) and reporter SRC-35Smp:Luc. (C) Rice embryos (upper panel) were transfected with or without Ubi:SnRK1A and incubated with or without 1 μM ABA or 50 mM sorbitol, and barley aleurones (lower panel) were transfected with or without Ubi:SnRK1A and incubated with 5 μM ABA or 400 mM sorbitol.
Rice embryos were prepared for particle bombardment as described (Chen et al., 2006). The rice embryos were bombarded with reporter, effectors and internal control at a ratio of 4:2:1 for single effector or 4:2:2:1 for two effectors. The internal control (Ubi::GUS) was used to normalize the reporter enzyme activity because different transformation efficiency might occur in each independent experiment. Bombarded rice embryos were divided into two halves, with half being incubated in MS liquid medium containing 100 mM Glc, and the other half grown in MS liquid containing 100 mM mannitol, for 24 h. Total proteins were extracted for embryos with a cell lysis buffer [0.1 M K-phosphate, pH 7.8, 1 mM EDTA, 10% glycerol, 1% triton X-100, and 7 mM β-mercaptoethanol]. GUS assay buffer [0.1 M Na-phosphate, 20 mM EDTA, 0.2% sarcosine, 0.2% Triton X-100, and 20 mM β-mercaptoethanol] was used for GUS activity assay. The activity assay of GUS and luciferase were described elsewhere (Lu et al., 1998). All bombardments were repeated at least three times.

αAmy3 SRC promoter [2] = assay: Barley aleurone transient expression assay, SRC-35Smp:Luc reporter (luciferase); format: cell-based; conditions: barley aleurones, 5 μM ABA or 400 mM sorbitol, 24 h
Description: as §1
The barley aleurone/endosperm transient expression assays were performed as described (Hong et al., 2012). Each independent experiment consisted of three replicates, with six endosperms for each treatment, and was repeated three times with similar results. Luciferase and GUS activity assays were performed as described (Hong et al., 2012). […]

SKIN1 = assay: Quantitative RT-PCR of SKIN1 mRNA in leaves of 2-week-old rice seedlings after stress or ABA; format: in vivo; conditions: 6 h after salt stress (200 mM NaCl)
Description: FIG. 9. The expression of SKIN is induced by various abiotic stresses and ABA, and SKINs promote the ABA sensitivity. (A) Total RNA was purified from leaves of 2-week-old rice seedlings that had been air dried, treated with 200 mM salt, incubated at 4° C., or treated with 1 μM ABA, or from embryos of seedlings grown underwater (hypoxia), for various lengths of time. RNAs were subjected to quantitative RT-PCR analysis using primers specific for SKIN1 and SKIN2. The highest mRNA level was set as 100%. The lowest mRNA level was assigned a value of 1× and mRNA levels of other samples were calculated relative to this value. Error bars indicate the SE for three replicate experiments. (B) Seeds of transgenic lines SKIN1-Ox(O3), SKIN1-Ri(R3), SKIN2-Ox(02) and SKIN2-Ri(R1) were germinated and grown in water containing various concentrations of ABA at 28° C. under a 14-h light/10-h dark cycle for 6 days. Lengths of shoots were measured. Error bars represent SE (n=8) at significance levels: * p<0.1, ** p<0.05. […]
Total RNA was extracted from leaves of rice seedlings with the Trizol reagent (Invitrogen) and treated with RNase-free DNase I (Promega, Madison, Wis.). […] The quantitative variation between different samples was evaluated by the delta-delta CT method, and the amplification of 18S ribosomal RNA was used as an internal control to normalize all data.

[3] = target: T1, GAD-SnRK1A (full-length SnRK1A 1-505 fused to the Gal4 activation domain) (rice, UniProt Q852Q2 1-505); assay: yeast two-hybrid, GBD-SKIN1 truncation with GAD-SnRK1A
T1 construct: range 1-505
T1 sequence (looked up): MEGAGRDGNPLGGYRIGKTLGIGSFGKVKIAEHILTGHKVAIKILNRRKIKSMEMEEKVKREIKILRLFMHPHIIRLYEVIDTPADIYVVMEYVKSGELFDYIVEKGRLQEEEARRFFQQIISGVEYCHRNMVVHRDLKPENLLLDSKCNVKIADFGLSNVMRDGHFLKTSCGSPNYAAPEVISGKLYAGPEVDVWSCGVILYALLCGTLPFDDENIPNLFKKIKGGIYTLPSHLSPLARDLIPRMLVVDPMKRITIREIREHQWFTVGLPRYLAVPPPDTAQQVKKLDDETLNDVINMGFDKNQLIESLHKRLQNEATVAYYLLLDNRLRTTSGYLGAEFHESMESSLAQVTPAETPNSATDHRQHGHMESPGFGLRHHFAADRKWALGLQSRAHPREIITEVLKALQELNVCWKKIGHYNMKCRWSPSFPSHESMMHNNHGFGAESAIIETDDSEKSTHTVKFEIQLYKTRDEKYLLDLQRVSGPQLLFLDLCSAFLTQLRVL
Text: FIG. 14. The N-terminal amino acids 1-83 of SKIN1 interact with the kinase and autoinhibitory domains of SnRK1A in yeast. (A) Plasmid constructs ADH1:GAD-SnRK1A and ADH1:GBD-SKIN1 (wild type or deletion at N- or C-terminus) were used as effectors, and Mel1:LacZ, Mel1:Mel1 and Gal1:HIS3 were used as reporters. (B) The N-terminus of SKIN1 interacts with SnRK1A in the yeast two-hybrid assays. (C) The kinase domain (KD) and auto-inhibitory domain (AID) of SnRK1A interact with SKIN1 and SKIN2. Yeast strain AH109 containing GAD-SnRK1A or GAD alone (-) was mated with yeast strain Y187 containing various GBD-SKIN1 constructs or GBD alone (-). The interaction between p53 and large T-antigen (T-Ag) was used as a positive control.

Molecule: OC[C@@H](O)[C@@H](O)[C@H](O)[C@@H](O)CO [sorbitol]
- Effect on αAmy3 SRC promoter (luciferase activity), alone and SnRK1A-activated (αAmy3 SRC promoter [1]; rice embryos, 1 μM ABA or 50 mM sorbitol): suppressed
- Effect on αAmy3 SRC promoter (luciferase activity), alone and SnRK1A-activated (αAmy3 SRC promoter [2]): suppressed

Molecule: [Cl-].[Na+] [salt, NaCl]
- Induction of SKIN1 mRNA accumulation (SKIN1): ≤ 2.3 fold

B1: SnRK1A: rice Snf1-related protein kinase 1A, overexpressed from Ubi:SnRK1A effector (protein)
chain: T1 sequence (looked up)
modifications: left off: large carriers
- αAmy3 SRC promoter activity on overexpression of the effector (αAmy3 SRC promoter [1]; 100 mM glucose (+S) or without glucose (−S)): enhanced

B2: GBD-SKIN1 84-159 (other)
chain: MKLLSSIEQACDICRLKKLKCSKEKPKCAKCLKNNWECRYSPKTKRSPLTRAHLTEVESRLERLEQLFLLIFPREDLDMILKMDSLQDIKALLTGLFVQDNVNKDAVTDRLASVETDMPLTLRQHRISATSSSEESSNKGQRQLTVSVESKLKAEDEQVGLGCLDALEESLPIKRGLSNFYAGKSKSFTSLAEATASPAAAANELAKPENPFNKRRRILATWS
- binding result [3]: no binding

B3: GBD-SKIN1 160-259 (other)
chain: MKLLSSIEQACDICRLKKLKCSKEKPKCAKCLKNNWECRYSPKTKRSPLTRAHLTEVESRLERLEQLFLLIFPREDLDMILKMDSLQDIKALLTGLFVQDNVNKDAVTDRLASVETDMPLTLRQHRISATSSSEESSNKGQRQLTVSRRASCSSLATATYLPPLLAPDHAVAEGDEGEEEDDDSDDDERQHRGKNGGRRESAAPPLPLPPPRLTLHTQMGGMVRRNGTFRSPRSLSLSDLQNSGGSC
- Antagonism of SnRK1A function on αAmy3 SRC promoter (αAmy3 SRC promoter [1]): did not antagonize
- binding result [3]: no binding

B4: GBD-SKIN1 84-259 (other)
chain: MKLLSSIEQACDICRLKKLKCSKEKPKCAKCLKNNWECRYSPKTKRSPLTRAHLTEVESRLERLEQLFLLIFPREDLDMILKMDSLQDIKALLTGLFVQDNVNKDAVTDRLASVETDMPLTLRQHRISATSSSEESSNKGQRQLTVSVESKLKAEDEQVGLGCLDALEESLPIKRGLSNFYAGKSKSFTSLAEATASPAAAANELAKPENPFNKRRRILATWSRRASCSSLATATYLPPLLAPDHAVAEGDEGEEEDDDSDDDERQHRGKNGGRRESAAPPLPLPPPRLTLHTQMGGMVRRNGTFRSPRSLSLSDLQNSGGSC
- binding result [3]: no binding

B5: SKIN1(1-83): truncated SKIN1 containing amino acids 1-83 (protein)
chain: MKLLSSIEQACDICRLKKLKCSKEKPKCAKCLKNNWECRYSPKTKRSPLTRAHLTEVESRLERLEQLFLLIFPREDLDMILKMDSLQDIKALLTGLFVQDNVNKDAVTDRLASVETDMPLTLRQHRISATSSSEESSNKGQRQLTVSMSTAVADVPPAAAYGFPGSAKRGKPEEVVVLMGKRRNEGFFIEEEEEEEEVLTESSSIGAPSPASSSIGENSGEEEGGDDEEE
- Antagonism of SnRK1A function on αAmy3 SRC promoter (αAmy3 SRC promoter [1]): did not antagonize
